This note sets out measurements from article PMC10456876.

Like-named read-outs stand apart in the source and are kept apart here.

Test [1] has as its target human telomeric nucleosome core particle (teloNCP) (human) (UniProt P68431). Kind of test: cryo-EM structure; TRF1core-teloNCP complex from the glycerol gradient, cross-linked with 0.5 mM BS3; 2:1 complex at 2.7 Å, 4:1 complex at 6.7 Å (rigid-body docking).
Test [2] has the same target. The description is as above. This is another data set of the same source.
Test [3] addresses human telomeric nucleosome core particle (teloNCP), P68431;P62805;P04908;P06899. Kind of test: EMSA. As to conditions: point at 200 nM TRF1core; triplicate; parent: est. 100; read off a plot. For orientation: In EMSA bound probe runs differently from free probe, usually more slowly.

Chain of wild-type MBP-tagged TRF1core (TRF1-TIN2-TPP1) (Q9BSI4 whole entry, looked up): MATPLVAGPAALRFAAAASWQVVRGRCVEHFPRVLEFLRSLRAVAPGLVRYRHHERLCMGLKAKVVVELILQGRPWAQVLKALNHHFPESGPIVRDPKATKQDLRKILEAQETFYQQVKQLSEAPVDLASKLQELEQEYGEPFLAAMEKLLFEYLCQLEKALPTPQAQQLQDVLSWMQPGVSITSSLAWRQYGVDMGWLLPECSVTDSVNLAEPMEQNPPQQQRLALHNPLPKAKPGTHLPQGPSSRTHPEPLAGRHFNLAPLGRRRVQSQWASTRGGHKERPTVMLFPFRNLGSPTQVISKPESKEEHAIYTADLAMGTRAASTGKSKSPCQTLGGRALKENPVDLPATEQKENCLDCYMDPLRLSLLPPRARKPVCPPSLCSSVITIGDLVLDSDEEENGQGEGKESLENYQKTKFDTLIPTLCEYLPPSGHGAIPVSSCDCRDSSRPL
Chain of wild-type MBP-tagged TRF1core (TRF1-TIN2-TPP1) (P54274 whole entry, looked up, stated change not applied): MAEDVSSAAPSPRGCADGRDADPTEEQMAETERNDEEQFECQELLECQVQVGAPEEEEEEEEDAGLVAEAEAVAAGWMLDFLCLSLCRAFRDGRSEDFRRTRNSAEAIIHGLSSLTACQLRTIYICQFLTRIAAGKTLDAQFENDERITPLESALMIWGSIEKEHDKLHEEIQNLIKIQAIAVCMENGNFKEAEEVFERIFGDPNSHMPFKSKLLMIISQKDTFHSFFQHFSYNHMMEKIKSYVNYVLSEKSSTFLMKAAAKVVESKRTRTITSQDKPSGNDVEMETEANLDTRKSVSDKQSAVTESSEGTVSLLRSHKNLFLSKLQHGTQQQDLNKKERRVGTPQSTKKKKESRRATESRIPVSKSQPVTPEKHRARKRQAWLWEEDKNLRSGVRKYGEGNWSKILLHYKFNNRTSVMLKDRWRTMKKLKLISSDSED

Turning to “shelterin TRF1-TIN2-TPP1 subcomplex (TRF1core), untagged (from UniProt P54274 1-439; Q9BSI4 1-451)”, the TRF1 Myb domains bound per teloNCP in test [1] turned out to be 4; in test [2] it was 2.
As to “wild-type MBP-tagged TRF1core (TRF1-TIN2-TPP1) (from UniProt P54274;Q9BSI4) S434A; S435A; S437A”, the response in test [3] was found to be 17 % Bound.
